Patent US20080311130A1 (IMMUNE DISEASE INSTITUTE, published 2008)

Experiments:
[1] = target: T1, ICAM-1-Fcγ (ICAM-1 residues of 1-480 fused to the Fc of human IgG, R&D Systems) (human, UniProt P05362 28-480); assay: SPR (Biacore 3000), I domain injected over ICAM-1-Fcγ-coupled CM5 chip, 10 mM MgCl2
T1 construct: range 1-480; Bought (R&D Systems); also called ICAM-1-Fcγ chimera; not shown: Fc of human IgG
Experimental: (§1) Mutant I domains (F265S, F292A, F292G, F265S/F292G, and HA) with residues of Asn-129 to Tyr-307 were expressed in Escherichia coli BL21 (DE3) (Novagen), refolded, and purified as described previously⁶. ICAM-1-Fcγ-coupled or mock-coupled CM5 sensor chip as control was prepared using the amine coupling kit (BIAcore, Piscataway, N.J.), as described previously³³. Surface plasmon resonance was measured using Biacore 3000. I domains were injected over the chip in 20 mM Tris HCl, pH 8.0, 150 mM NaCl, 10 mM MgCl₂, at a flow rate of 10 μl/min at room temperature.
Several of the most activating mutants were expressed in Escherichia coli and refolded in order to measure the kinetics of binding to ICAM-1 by surface plasmon resonance (FIG. 2). Data are shown in Table 2, and for comparison are shown kinetics measured for the wild-type and disulfide-bonded IA and HA mutants in a previous study⁶, and for the same disulfide-bonded HA mutant in the current study.
(§2) The values shown in the table are mean ± SD from three independent measurements. The parameters of kₒₙ, koff, and Kd were calculated by fitting the 1:1 Langmuir binding model to the Biacore sensogram. The values were from the previous studies ⁶.

[2] = target: T1, ICAM-1-Fcγ (ICAM-1 residues of 1-480 …); assay: SPR (Biacore)
Experimental: Sensograms show the binding of the I domain mutants (F292A, F265S, F292G, and F265S/F292G) to ICAM-1-Fcγ-coated sensor chip. In all sensograms, the signals from the control surface, as described in Materials and Methods, were subtracted. I domain mutants were injected in a series of concentrations starting from 100 μM for F292A and 1 μM for F292G, F265S, and F265S/F292G, and the subsequent concentrations were by two-fold serial dilutions.
as §1, §2

[3] = target: T1, ICAM-1-Fcγ (ICAM-1 residues of 1-480 …); assay: SPR (Biacore); wild-type value from a previous study
[4] = target: T1, ICAM-1-Fcγ (ICAM-1 residues of 1-480 …); assay: cell-based or functional assay
[5] = target: ICAM-1-Fcγ (ICAM-1 residues of 1-480 fused to the Fc of human IgG, R&D Systems) (human) (UniProt P05362); assay: flow cytometry on yeast-displayed I domain, ICAM-1-Fcγ 10 µg/ml
Sequence of ICAM-1-Fcγ (ICAM-1 residues of 1-480 fused to the Fc of human IgG, R&D Systems) (human) (P05362 28-480 limits assumed): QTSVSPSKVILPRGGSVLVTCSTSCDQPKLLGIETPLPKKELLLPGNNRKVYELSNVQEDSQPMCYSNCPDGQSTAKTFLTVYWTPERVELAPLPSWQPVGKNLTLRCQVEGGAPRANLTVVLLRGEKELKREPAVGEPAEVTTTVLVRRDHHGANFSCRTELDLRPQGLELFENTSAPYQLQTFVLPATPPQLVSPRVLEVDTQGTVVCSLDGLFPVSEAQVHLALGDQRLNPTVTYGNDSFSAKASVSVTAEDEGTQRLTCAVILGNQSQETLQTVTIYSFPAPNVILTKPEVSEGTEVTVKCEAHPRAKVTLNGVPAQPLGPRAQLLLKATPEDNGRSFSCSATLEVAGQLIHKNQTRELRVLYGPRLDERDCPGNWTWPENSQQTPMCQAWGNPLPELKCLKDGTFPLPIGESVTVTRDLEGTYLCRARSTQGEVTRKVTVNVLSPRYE

[6] = target: T1, ICAM-1-Fcγ (ICAM-1 residues of 1-480 …); assay: as above
Experimental: Cells that were cultured only in SD-CAA or further induced in SG-CAA were harvested, washed with 100 μl of labeling buffer (PBS, 0.5% BSA, 10 mM MgCl₂), and then incubated with ligands at 10 μg/ml in 50 μl of the labeling buffer for 20 min with shaking at 30° C. in a 96-well V-bottom plate. Ligands used in this study were anti-c-myc antibody 9E10 (Santa Cruz Biotechnology, CA) and anti-hemagglutinin antibody 12CA5 (Roche Applied Science), αL I domain-specific antibodies TS1/22 and MEM83³², and ICAM-1-Fcγ (ICAM-1 residues of 1-480 fused to the Fc of human IgG, R&D Systems). After incubation with the primary ligands, cells were washed once in 100 μl of the labeling buffer and incubated with the fluorescence-conjugated secondary antibodies at 5 μg/ml in 50 μl of the labeling buffer for 20 min at 4° C. Finally, cells were washed once in 100 μl and suspended in 100 μl of the labeling buffer for flow cytometry (FACScan, BD Biosciences).
A total of twenty-five yeast colonies were picked from SD-CAA plates from the libraries selected with ICAM-1-Fcγ. These clones were tested for binding of ICAM-1-Fcγ, and sequenced (Table 1). Of these, 15 had unique sequences and were designated as m1 to m15, and all bound ICAM-1 better than wild-type (Table 1). Five clones contained single mutations, and the remainder contained 2-5 mutations each (Table 1). From the clones containing multiple mutations, one to three residues were selected and independently tested as a single substitution (designated with a, b, or c suffix) or independently isolated from the ratchet residue library (see below).

T1 sequence (P05362 28-480 limits assumed, form in doubt): as the sequence (P05362 28-480 limits assumed) above

Kd [1] | koff [1] | kon [1] | ICAM-1 (% ASFI of HA) [6] | Binder | further results
119 nM | 0.0019 s⁻¹ | 16000 M⁻¹ s⁻¹ |  | soluble αL I domain mutant F292G, Asn-129 to Tyr-307 (receptor) NVDLVFLFDGSMSLQPDEFQKILDFMKDVMKKLSNTSYQFAAVQFSTSYKTEFDFSDYVKWKDPDALLKHVKHMLLLTNTFGAINYVATEVFREELGARPDATKVLIIITDGEATDSGNIDAAKDIIRYIIGIGKHFQTKESQETLHKFASKPASEFVKILDTGEKLKDLFTELQKKIY | fold higher affinity compared to the F292A mutant [2]: 170 fold; fold slower dissociation rate than the F292A mutant [2]: 100 fold; fold decrease in dissociation-rate (against wild type) [3]: 1000 fold; fold increase in affinity (against wild type) [3]: 10000 fold
6 nM | 0.00015 s⁻¹ | 25000 M⁻¹ s⁻¹ |  | soluble αL I domain double mutant F265S/F292G, Asn-129 to Tyr-307 (receptor) NVDLVFLFDGSMSLQPDEFQKILDFMKDVMKKLSNTSYQFAAVQFSTSYKTEFDFSDYVKWKDPDALLKHVKHMLLLTNTFGAINYVATEVFREELGARPDATKVLIIITDGEATDSGNIDAAKDIIRYIIGIGKHSQTKESQETLHKFASKPASEFVKILDTGEKLKDLFTELQKKIY | fold decrease in dissociation rate compared to the F265S and F292G single mutants [2]: 10 fold; fold higher binding affinity than the HA mutant [2]: 20 fold; fold higher kon than the single mutants [2]: 2 fold; fold slower dissociation rate than the HA I domain [2]: ~100 fold; fold increase in affinity compared to the wild-type I domain [3]: 200000 fold; IC50 in blocking the adhesion of PMA activated lymphocytes to ICAM-1 coated surfaces [4]: 0.35 µM; potency relative to the HA I domain in lymphocyte adhesion to ICAM-1, transmigration and homotypic aggregation [4]: 10 fold
20000 nM | 0.19 s⁻¹ | 9500 M⁻¹ s⁻¹ |  | soluble αL I domain mutant F292A, Asn-129 to Tyr-307 (receptor) NVDLVFLFDGSMSLQPDEFQKILDFMKDVMKKLSNTSYQFAAVQFSTSYKTEFDFSDYVKWKDPDALLKHVKHMLLLTNTFGAINYVATEVFREELGARPDATKVLIIITDGEATDSGNIDAAKDIIRYIIGIGKHFQTKESQETLHKFASKPASEFVKILDTAEKLKDLFTELQKKIY | fold increase in affinity (against wild type) [3]: 75 fold
145 nM | 0.0017 s⁻¹ | 11800 M⁻¹ s⁻¹ |  | soluble αL I domain mutant F265S, Asn-129 to Tyr-307 (receptor) NVDLVFLFDGSMSLQPDEFQKILDFMKDVMKKLSNTSYQFAAVQFSTSYKTEFDFSDYVKWKDPDALLKHVKHMLLLTNTFGAINYVATEVFREELGARPDATKVLIIITDGEATDSGNIDAAKDIIRYIIGIGKHSQTKESQETLHKFASKPASEFVKILDTFEKLKDLFTELQKKIY | fold slower dissociation rate than the F292A mutant [2]: 100 fold; fold decrease in dissociation-rate (against wild type) [3]: 1000 fold; fold increase in affinity (against wild type) [3]: 10000 fold
 |  |  |  | αL I domain clone m10b (E293G), yeast-displayed (receptor, not shown: large carriers; small tags and cut ends) NVDLVFLFDGSMSLQPDEFQKILDFMKDVMKKLSNTSYQFAAVQFSTSYKTEFDFSDYVKWKDPDALLKHVKHMLLLTNTFGAINYVATEVFREELGARPDATKVLIIITDGEATDSGNIDAAKDIIRYIIGIGKHFQTKESQETLHKFASKPASEFVKILDTFGKLKDLFTELQKKIYVIEGTSKQDLT | ICAM-1 (% ASFI of HA) [5]: 4 % ASFI of HA
 |  |  |  | αL I domain clone f1 (L289A), yeast-displayed (receptor, not shown: large carriers; small tags and cut ends) NVDLVFLFDGSMSLQPDEFQKILDFMKDVMKKLSNTSYQFAAVQFSTSYKTEFDFSDYVKWKDPDALLKHVKHMLLLTNTFGAINYVATEVFREELGARPDATKVLIIITDGEATDSGNIDAAKDIIRYIIGIGKHFQTKESQETLHKFASKPASEFVKIADTFEKLKDLFTELQKKIYVIEGTSKQDLT | ICAM-1 (% ASFI of HA) [5]: 1 % ASFI of HA
 |  |  | 110 % ASFI of HA | αL I domain clone m15a (F277L), yeast-displayed (receptor, yeast surface display; not shown: Aga2, linker and hemagglutinin tag of pCTCON; c-myc tag) NVDLVFLFDGSMSLQPDEFQKILDFMKDVMKKLSNTSYQFAAVQFSTSYKTEFDFSDYVKWKDPDALLKHVKHMLLLTNTFGAINYVATEVFREELGARPDATKVLIIITDGEATDSGNIDAAKDIIRYIIGIGKHFQTKESQETLHKLASKPASEFVKILDTFEKLKDLFTELQKKIYVIEGTSKQDLT | 
 |  |  | 17 % ASFI of HA | αL I domain clone m12c (I309T), yeast-displayed (receptor, yeast surface display; not shown: Aga2, linker and hemagglutinin tag of pCTCON; c-myc tag) NVDLVFLFDGSMSLQPDEFQKILDFMKDVMKKLSNTSYQFAAVQFSTSYKTEFDFSDYVKWKDPDALLKHVKHMLLLTNTFGAINYVATEVFREELGARPDATKVLIIITDGEATDSGNIDAAKDIIRYIIGIGKHFQTKESQETLHKFASKPASEFVKILDTFEKLKDLFTELQKKIYVTEGTSKQDLT | 
 |  |  | 14 % ASFI of HA | αL I domain clone m14 (I288N), yeast-displayed (receptor, yeast surface display; not shown: Aga2, linker and hemagglutinin tag of pCTCON; c-myc tag) NVDLVFLFDGSMSLQPDEFQKILDFMKDVMKKLSNTSYQFAAVQFSTSYKTEFDFSDYVKWKDPDALLKHVKHMLLLTNTFGAINYVATEVFREELGARPDATKVLIIITDGEATDSGNIDAAKDIIRYIIGIGKHFQTKESQETLHKFASKPASEFVKNLDTFEKLKDLFTELQKKIYVIEGTSKQDLT | 
 |  |  | 123 % ASFI of HA | αL I domain clone m13 (F265S), yeast-displayed (receptor, yeast surface display; not shown: Aga2, linker and hemagglutinin tag of pCTCON; c-myc tag) NVDLVFLFDGSMSLQPDEFQKILDFMKDVMKKLSNTSYQFAAVQFSTSYKTEFDFSDYVKWKDPDALLKHVKHMLLLTNTFGAINYVATEVFREELGARPDATKVLIIITDGEATDSGNIDAAKDIIRYIIGIGKHSQTKESQETLHKFASKPASEFVKILDTFEKLKDLFTELQKKIYVIEGTSKQDLT | 
 |  |  | 30 % ASFI of HA | αL I domain clone m15 (F277L, I288T), yeast-displayed (receptor, yeast surface display; not shown: Aga2, linker and hemagglutinin tag of pCTCON; c-myc tag) NVDLVFLFDGSMSLQPDEFQKILDFMKDVMKKLSNTSYQFAAVQFSTSYKTEFDFSDYVKWKDPDALLKHVKHMLLLTNTFGAINYVATEVFREELGARPDATKVLIIITDGEATDSGNIDAAKDIIRYIIGIGKHFQTKESQETLHKLASKPASEFVKTLDTFEKLKDLFTELQKKIYVIEGTSKQDLT | 
